Results published in patent US20240141072A1 (published 2024).

Assays:
Assay in all cases: Octet BLI; biotinylated huDLL3-IgG1 fusion on streptavidin tips; single 50 nM trispecific, conditioned medium
[1] = molecular target: T1, anti-DLL3 trispecific protein with DLL3 binding domain 52C04
T1 construct: trispecific, one chain; also called 52C4
Description: (§1) Using the conditioned medium with known concentrations of the anti-DLL3 trispecific proteins, the relative binding affinities of the anti-DLL3 trispecific proteins toward human DLL3 protein were measured using a method where biotinylated version of human DLL3 protein were expressed as a human IgG1 fusion protein, and the binding affinity measurement was carried out in an Octet instrument with streptavidin tips.

[2] = molecular target: T2, anti-DLL3 trispecific protein with DLL3 binding domain 51A05
T2 construct: trispecific, one chain; also called 51A5
Description: as §1

[3] = molecular target: T3, anti-DLL3 trispecific protein with DLL3 binding domain 42H08
T3 construct: trispecific, one chain
T3 sequence (chain, as listed by the source): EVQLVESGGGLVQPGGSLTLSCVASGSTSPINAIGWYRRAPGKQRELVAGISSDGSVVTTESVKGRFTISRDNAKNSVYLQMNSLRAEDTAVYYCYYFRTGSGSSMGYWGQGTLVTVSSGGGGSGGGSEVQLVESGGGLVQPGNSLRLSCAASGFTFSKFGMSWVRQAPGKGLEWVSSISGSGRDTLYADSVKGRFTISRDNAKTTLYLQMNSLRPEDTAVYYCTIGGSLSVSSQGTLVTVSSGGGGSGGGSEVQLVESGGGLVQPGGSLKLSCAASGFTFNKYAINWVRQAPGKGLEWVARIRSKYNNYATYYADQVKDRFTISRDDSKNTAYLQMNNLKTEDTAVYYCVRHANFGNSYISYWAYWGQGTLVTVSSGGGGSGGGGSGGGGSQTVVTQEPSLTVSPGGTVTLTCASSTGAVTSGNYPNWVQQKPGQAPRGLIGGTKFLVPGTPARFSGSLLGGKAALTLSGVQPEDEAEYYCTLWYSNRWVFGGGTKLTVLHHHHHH
Description: as §1

[4] = molecular target: T4, anti-DLL3 trispecific protein with DLL3 binding domain 41C02
T4 construct: trispecific, one chain
Description: as §1

[5] = molecular target: T5, anti-DLL3 trispecific protein with DLL3 binding domain 52D04
T5 construct: trispecific, one chain; same domain order as the TAC protein m79; also called 52D4
T5 sequence (chain, as listed by the source): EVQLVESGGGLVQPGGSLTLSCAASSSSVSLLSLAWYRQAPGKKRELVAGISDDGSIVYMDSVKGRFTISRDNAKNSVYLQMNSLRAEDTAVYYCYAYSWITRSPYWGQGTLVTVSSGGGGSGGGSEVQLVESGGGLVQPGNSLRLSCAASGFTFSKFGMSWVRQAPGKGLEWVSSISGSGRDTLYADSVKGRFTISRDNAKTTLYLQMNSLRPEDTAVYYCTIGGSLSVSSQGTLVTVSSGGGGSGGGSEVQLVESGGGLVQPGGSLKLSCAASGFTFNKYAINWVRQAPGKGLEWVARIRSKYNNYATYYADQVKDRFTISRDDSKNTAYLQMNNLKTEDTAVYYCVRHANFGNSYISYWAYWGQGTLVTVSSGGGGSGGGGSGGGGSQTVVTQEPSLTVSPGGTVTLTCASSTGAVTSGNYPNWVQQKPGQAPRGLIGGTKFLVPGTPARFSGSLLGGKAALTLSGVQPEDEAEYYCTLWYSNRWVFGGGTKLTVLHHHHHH
Description: as §1

[6] = molecular target: T6, anti-DLL3 trispecific protein with DLL3 binding domain 42D05
T6 construct: trispecific, one chain
T6 sequence (chain, as listed by the source): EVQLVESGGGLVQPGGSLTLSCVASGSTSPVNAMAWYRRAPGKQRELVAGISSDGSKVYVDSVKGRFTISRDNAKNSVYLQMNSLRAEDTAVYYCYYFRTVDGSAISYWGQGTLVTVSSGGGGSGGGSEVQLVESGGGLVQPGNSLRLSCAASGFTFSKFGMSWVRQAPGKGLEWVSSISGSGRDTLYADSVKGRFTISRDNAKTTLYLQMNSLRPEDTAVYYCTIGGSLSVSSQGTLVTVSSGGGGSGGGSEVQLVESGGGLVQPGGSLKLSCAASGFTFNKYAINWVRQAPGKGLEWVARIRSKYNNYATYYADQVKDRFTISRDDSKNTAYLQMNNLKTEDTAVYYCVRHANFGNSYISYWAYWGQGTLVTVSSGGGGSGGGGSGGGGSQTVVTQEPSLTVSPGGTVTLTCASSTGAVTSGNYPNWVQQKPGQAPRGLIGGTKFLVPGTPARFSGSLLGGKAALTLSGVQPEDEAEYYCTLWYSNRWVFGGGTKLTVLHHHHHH
Description: as §1

[7] = molecular target: T7, anti-DLL3 trispecific protein with DLL3 binding domain 51D03
T7 construct: trispecific, one chain
Description: as §1

[8] = molecular target: T8, anti-DLL3 trispecific protein with DLL3 binding domain 41E02
T8 construct: trispecific, one chain
Description: as §1

[9] = molecular target: T9, anti-DLL3 trispecific protein with DLL3 binding domain 51E02
T9 construct: trispecific, one chain
T9 sequence (chain, as listed by the source): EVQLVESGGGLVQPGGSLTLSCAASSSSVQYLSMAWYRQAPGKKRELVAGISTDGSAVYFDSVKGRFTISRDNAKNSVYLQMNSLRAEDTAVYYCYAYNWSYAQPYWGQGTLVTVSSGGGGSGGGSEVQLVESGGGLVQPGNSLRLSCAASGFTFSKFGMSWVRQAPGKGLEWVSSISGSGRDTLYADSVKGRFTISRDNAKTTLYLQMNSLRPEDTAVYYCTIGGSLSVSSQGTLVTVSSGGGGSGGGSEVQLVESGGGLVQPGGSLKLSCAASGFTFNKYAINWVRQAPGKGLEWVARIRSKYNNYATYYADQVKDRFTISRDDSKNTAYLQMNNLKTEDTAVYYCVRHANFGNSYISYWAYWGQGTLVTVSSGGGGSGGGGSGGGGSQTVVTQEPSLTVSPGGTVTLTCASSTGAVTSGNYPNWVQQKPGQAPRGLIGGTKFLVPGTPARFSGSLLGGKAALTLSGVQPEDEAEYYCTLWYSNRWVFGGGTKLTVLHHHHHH
Description: as §1

[10] = molecular target: T10, anti-DLL3 trispecific protein with DLL3 binding domain 42A08
T10 construct: trispecific, one chain
T10 sequence (chain, as listed by the source): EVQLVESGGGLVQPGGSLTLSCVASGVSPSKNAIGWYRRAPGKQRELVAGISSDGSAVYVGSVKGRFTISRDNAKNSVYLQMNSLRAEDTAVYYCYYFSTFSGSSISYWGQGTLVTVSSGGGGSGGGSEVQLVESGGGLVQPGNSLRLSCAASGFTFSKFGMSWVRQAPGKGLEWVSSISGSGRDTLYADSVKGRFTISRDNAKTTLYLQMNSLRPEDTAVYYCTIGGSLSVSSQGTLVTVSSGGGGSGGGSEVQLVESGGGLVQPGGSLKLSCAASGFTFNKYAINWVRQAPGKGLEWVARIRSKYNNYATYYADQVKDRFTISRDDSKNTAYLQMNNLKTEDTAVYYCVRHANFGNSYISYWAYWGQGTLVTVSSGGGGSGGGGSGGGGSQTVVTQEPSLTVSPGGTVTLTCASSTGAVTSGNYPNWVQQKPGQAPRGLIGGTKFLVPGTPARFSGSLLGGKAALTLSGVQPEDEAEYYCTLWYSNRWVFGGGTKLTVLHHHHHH
Description: as §1

[11] = molecular target: T11, anti-DLL3 trispecific protein with DLL3 binding domain 42E06
T11 construct: trispecific, one chain
T11 sequence (chain, as listed by the source): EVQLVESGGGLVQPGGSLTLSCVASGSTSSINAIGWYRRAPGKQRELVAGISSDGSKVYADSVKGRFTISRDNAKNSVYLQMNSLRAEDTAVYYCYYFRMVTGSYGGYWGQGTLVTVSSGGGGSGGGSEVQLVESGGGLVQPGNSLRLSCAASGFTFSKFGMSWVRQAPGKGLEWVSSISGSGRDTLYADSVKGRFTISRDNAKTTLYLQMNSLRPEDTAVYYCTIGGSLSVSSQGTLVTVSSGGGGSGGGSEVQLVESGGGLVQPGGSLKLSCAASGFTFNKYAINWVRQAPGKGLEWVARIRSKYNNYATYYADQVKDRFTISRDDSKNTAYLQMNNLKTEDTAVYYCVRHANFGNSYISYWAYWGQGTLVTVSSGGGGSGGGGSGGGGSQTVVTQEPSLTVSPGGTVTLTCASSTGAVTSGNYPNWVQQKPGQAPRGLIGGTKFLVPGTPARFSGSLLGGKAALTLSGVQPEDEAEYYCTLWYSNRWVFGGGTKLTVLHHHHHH
Description: as §1

[12] = molecular target: T12, anti-DLL3 trispecific protein with DLL3 binding domain 51G10
T12 construct: trispecific, one chain
T12 sequence (chain, as listed by the source): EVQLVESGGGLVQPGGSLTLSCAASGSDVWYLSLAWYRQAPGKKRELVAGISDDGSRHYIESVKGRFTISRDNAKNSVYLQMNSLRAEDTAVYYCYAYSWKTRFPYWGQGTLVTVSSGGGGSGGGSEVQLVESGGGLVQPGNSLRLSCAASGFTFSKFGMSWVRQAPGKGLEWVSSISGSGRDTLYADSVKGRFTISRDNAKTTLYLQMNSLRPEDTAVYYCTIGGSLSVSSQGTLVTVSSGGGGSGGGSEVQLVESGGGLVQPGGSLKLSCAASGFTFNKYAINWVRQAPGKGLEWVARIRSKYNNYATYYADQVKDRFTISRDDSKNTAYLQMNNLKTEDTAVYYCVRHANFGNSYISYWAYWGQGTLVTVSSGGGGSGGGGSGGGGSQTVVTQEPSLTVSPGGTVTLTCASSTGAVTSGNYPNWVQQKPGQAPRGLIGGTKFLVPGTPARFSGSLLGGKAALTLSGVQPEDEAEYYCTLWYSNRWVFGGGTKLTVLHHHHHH
Description: as §1

[13] = molecular target: T13, anti-DLL3 trispecific protein with DLL3 binding domain 51D01
T13 construct: trispecific, one chain
T13 sequence (chain, as listed by the source): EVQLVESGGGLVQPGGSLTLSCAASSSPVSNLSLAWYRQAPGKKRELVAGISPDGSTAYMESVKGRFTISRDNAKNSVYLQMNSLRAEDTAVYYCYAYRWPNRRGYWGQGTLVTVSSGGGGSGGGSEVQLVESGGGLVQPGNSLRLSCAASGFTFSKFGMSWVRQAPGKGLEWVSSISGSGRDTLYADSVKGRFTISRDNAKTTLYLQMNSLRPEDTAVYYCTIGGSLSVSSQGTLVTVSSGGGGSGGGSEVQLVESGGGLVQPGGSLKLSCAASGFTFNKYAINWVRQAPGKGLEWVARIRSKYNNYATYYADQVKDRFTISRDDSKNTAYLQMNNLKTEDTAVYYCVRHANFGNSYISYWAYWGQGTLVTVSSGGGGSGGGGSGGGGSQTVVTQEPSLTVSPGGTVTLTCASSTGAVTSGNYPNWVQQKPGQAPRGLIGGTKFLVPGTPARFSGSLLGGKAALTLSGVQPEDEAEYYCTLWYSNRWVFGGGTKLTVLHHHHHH
Description: as §1

[14] = molecular target: T14, anti-DLL3 trispecific protein with DLL3 binding domain 41B11
T14 construct: trispecific, one chain
T14 sequence (chain, as listed by the source): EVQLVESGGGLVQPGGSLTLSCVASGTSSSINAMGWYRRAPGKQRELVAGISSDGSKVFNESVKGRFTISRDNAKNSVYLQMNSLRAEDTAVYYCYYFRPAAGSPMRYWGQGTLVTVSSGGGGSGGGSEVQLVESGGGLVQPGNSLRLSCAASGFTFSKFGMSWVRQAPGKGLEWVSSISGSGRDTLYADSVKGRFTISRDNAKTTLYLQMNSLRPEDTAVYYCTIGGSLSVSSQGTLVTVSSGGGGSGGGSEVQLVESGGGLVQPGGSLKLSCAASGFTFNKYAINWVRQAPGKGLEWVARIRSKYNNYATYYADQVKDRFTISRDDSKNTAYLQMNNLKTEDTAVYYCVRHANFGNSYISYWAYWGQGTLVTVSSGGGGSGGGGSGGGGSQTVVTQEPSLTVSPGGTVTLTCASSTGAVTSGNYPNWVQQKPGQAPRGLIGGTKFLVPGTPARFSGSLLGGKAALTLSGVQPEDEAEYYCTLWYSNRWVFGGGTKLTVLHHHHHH
Description: as §1

[15] = molecular target: T15, anti-DLL3 trispecific protein with DLL3 binding domain 41F07
T15 construct: trispecific, one chain
Description: as §1

[16] = molecular target: T16, anti-DLL3 trispecific protein with DLL3 binding domain 53B06
T16 construct: trispecific, one chain
Description: as §1

- Kd [1]: 0.82 nM
- Kd [2]: 1.1 nM
- Kd [3]: 2.1 nM
- Kd [4]: 2.4 nM
- Kd [5]: 0.5 nM
- Kd [6]: 2.7 nM
- Kd [7]: 3.3 nM
- Kd [8]: 3.4 nM
- Kd [9]: 3.5 nM
- Kd [10]: 3.6 nM
- Kd [11]: 3.8 nM
- Kd [12]: 0.6 nM
- Kd [13]: 7.9 nM
- Kd [14]: 9.9 nM
- Kd [15]: 25 nM
- Kd [16]: 0.71 nM
B1: biotinylated human DLL3 protein expressed as a human IgG1 fusion protein (Fc fusion, not shown: a dimerising Fc or GST)
chain: AGVFELQIHSFGPGPGPGAPRSPCSARLPCRLFFRVCLKPGLSEEAAESPCALGAALSARGPVYTEQPGAPAPDLPLPDGLLQVPFRDAWPGTFSFIIETWREELGDQIGGPAWSLLARVAGRRRLAAGGPWARDIQRAGAWELRFSYRARCEPPAVGTACTRLCRPRSAPSRCGPGLRPCAPLEDECEAPLVCRAGCSPEHGFCEQPGECRCLEGWTGPLCTVPVSTSSCLSPRGPSSATTGCLVPGPGPCDGNPCANGGSCSETPRSFECTCPRGFYGLRCEVSGVTCADGPCFNGGLCVGGADPDSAYICHCPPGFQGSNCEKRVDRCSLQPCRNGGLCLDLGHALRCRCRAGFAGPRCEHDLDDCAGRACANGGTCVEGGGAHRCSCALGFGGRDCRERADPCAARPCAHGGRCYAHFSGLVCACAPGYMGARCEFPVHPDGASALPAAPPGLRPGDPQRYL
modifications: biotinylated
